For assay [1], the target named is Sec39 (residues 1–709) (S. cerevisiae) (UniProt Q12745).
Assay [2] concerns the target Dsl1 (residues 1–754) (S. cerevisiae) (UniProt P53847).
In assay [3] the target is T1, Sec39 (residues 1–709) (S. cerevisiae, UniProt Q12745 1-709).
T1 sequence (looked up): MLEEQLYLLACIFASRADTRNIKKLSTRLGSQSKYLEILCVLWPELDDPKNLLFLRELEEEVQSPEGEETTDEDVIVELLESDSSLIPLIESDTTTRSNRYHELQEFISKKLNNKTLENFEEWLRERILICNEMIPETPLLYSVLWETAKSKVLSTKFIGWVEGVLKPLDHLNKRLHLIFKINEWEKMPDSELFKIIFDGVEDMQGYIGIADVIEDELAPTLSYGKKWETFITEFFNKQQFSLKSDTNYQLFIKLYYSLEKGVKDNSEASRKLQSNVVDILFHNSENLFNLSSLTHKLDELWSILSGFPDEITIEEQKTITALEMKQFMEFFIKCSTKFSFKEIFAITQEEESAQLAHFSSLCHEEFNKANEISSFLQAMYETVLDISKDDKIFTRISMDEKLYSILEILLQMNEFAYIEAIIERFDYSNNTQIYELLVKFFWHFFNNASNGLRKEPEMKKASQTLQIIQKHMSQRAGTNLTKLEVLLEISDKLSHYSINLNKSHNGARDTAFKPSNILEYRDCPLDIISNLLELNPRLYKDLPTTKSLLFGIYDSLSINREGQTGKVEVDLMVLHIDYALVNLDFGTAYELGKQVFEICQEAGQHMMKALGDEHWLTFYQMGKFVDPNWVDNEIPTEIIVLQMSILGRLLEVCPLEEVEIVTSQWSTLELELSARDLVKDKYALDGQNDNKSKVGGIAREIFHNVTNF
In words: SEC.

The target of assay [4] is T2, His-tagged Sec39 (S. cerevisiae, UniProt Q12745 1-709).
T2 sequence (looked up): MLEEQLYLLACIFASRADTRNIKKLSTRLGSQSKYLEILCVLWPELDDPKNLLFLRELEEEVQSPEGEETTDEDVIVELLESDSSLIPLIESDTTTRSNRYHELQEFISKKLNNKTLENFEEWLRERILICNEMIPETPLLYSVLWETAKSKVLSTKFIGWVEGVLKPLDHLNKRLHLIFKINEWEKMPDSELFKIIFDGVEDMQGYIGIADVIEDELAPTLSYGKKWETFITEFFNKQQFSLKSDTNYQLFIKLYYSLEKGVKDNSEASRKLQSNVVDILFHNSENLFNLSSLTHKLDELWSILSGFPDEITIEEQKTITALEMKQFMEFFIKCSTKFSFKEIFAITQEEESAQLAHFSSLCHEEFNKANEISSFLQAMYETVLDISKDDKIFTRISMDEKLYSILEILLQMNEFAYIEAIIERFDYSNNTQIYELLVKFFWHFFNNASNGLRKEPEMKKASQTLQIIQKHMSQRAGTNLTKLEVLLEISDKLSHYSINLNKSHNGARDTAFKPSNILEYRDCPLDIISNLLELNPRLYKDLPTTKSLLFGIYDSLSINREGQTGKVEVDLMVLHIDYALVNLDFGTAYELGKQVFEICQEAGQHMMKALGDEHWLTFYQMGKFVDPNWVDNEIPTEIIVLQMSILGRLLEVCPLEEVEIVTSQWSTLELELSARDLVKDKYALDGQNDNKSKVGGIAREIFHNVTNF
As to the kind of experiment: co-purification.

The target in assay [5] is T1, Sec39 (residues 1–709). In words: co-purification.
Assay [6] has as its target T3, Sec39 residues 1–392 (S. cerevisiae, UniProt Q12745 1-392).
T3 sequence (looked up): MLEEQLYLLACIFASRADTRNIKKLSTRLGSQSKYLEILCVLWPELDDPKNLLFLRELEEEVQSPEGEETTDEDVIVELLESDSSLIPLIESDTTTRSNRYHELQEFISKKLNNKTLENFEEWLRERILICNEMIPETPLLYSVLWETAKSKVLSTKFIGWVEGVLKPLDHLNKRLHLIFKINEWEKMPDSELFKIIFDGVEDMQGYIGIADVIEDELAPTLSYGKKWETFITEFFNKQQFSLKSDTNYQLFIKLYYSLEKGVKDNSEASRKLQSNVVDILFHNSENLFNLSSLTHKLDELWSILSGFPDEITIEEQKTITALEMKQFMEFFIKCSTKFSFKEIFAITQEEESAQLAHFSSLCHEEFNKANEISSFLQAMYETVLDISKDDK
As to the kind of experiment: SEC. (In general: SEC sorts molecules by how far they enter the pores of the column.)

A word on the Kd: it is the concentration at which binding is half-saturated.

In assay [1], “Dsl1 (residues 1–754) (from UniProt P53847 1-754) (natural protein)” gave a Kd of 10 nM. That is a double-digit nanomolar value.

For “Tip20 (residues 1–701) (from UniProt P33891 1-701) (natural protein)”, the Kd in assay [2] is 100 nM.

B1: N-terminal peptide of Use1 (residues 1–35) (peptide, UniProt P53146 1-35, looked up)
peptide: MAETSNDPFLSYVLSSKQLTNLNRLRRKAVTKQLG
With B1, in assay [3], the binding result is “binds”.

B2: Use1 cytoplasmic domain (residues 1–212), TF tag removed (domain or fragment, S. cerevisiae, UniProt P53146 1-212, looked up)
chain: MAETSNDPFLSYVLSSKQLTNLNRLRRKAVTKQLGSSDDNKVSEEFLRYQHTYQREAFEYLQTKHDAHKIMESQYEQYQSSSKTRRYSIDLDSVDAVDTESQTEYPNEEFIDRNEDSEAVMELRKRLLGKGQNKGLGYETTKSVDRQIEDQDTLQQDLIQDMSKLVGSLKQGAVAFQSALDEDKQVLGAAEIGIQVASQGLMDVSGKLRKYD
For B2, the binding result in assay [4] and in assay [5] was “binds” each time.

B3: TF-Use1 (residues 1–212 fused to trigger factor) (domain or fragment, S. cerevisiae, UniProt P53146 1-212, looked up)
chain: MAETSNDPFLSYVLSSKQLTNLNRLRRKAVTKQLGSSDDNKVSEEFLRYQHTYQREAFEYLQTKHDAHKIMESQYEQYQSSSKTRRYSIDLDSVDAVDTESQTEYPNEEFIDRNEDSEAVMELRKRLLGKGQNKGLGYETTKSVDRQIEDQDTLQQDLIQDMSKLVGSLKQGAVAFQSALDEDKQVLGAAEIGIQVASQGLMDVSGKLRKYD
Regarding B3, the binding result in assay [6] was “binds”.

Source of the values: PMC2806190 (Cell, 2009).
